From patent publication US20110212106A1, “HIV-1 NE[…] USES THEREOF” (priority 2010, published 2011)

Legend:
[1] = molecular target: IIIB gp120 envelope protein (HIV-1 IIIB) (UniProt P03375); assay: ELISA, inhibition of gp120 binding to solid-phase sCD4
[2] = molecular target: HIV-1 gp120 (strain not stated at these places) (HIV-1); assay: competition ELISA on immobilized gp120, competitor labeled HJ16

Substance: b12 (antibody)
- IC50 [1]: 1.16 µg/mL
- plateau of inhibition [2]: 80%
